In the nanobody polyreactivity screen of Harvey et al. (2022):

Test: yeast display, Sf9 membrane polyspecificity reagent, FACS + sequencing; frameworks hold sequencing errors
Procedure, shortened: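 Genes from sorted yeast were amplified by colony PCR, read by MiSeq 2 × 250 sequencing and filtered on CDR length. These cells carried a synthetic nanobody library in Saccharomyces cerevisiae BJ5465 and were sorted by FACS into low and high (top ~1%) gates on anti-HA and streptavidin fluorescence. Polyreactivity is labelled according to the gate of origin.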

| Sequence | polyreactivity (PSR sort gate) |
| --- | --- |
| QVQLVESGGRLVQAGGRLRLSCAASGSIFLYNARGWYRQAPGKERELVAAINYSGVSTYYADSVKGRFTISRDNAKNTVYLQMNSLKPEDTAVYYCARRWNAFGSKGGYWGQGTQVTVSS | high polyreactivity |
| QVQLVESGGRLVQAGGRLRLSCAASGSISASYAMGWYRQAPGKERELVAAITSGGSTYYADSVKGRFTISRDNAKYTVYLQMNSLKPEDTAVYYCAKRPKRTYYPHIGYDYWGLGTQVTVSS | low polyreactivity |
| QVQLVESGGRLVQAGGSIRLRCAASGNTFVYNDMGWYRQAPGKERELVADIRYSGSTYYADSVKGRFTISRDNATNTVYLEMNSLKPEDTAVYYCAKAYYVLSWMGYWGQGTQVTVSS | low polyreactivity |
| QVQLVESGGRLVQAGGSIRLSCAASGRIFGAYAMGWYRQAPGKERELVAAITQSGGSTFYADSVKGRFTISRDNAKNTVYLQMNSLKPEVTAVYYWGQGTQVTVSS | low polyreactivity |
| QVQLVESGGRLVQAGGSLLLSSAASGRTFGIYAMGWSRQSPGKERELCAAITWSGDSTYYADSVKGRFTISRDNAKNTVYIQMNSLKPEDTAVYYCAADYVGLTSVRYDYWGQGTQVTVSS | low polyreactivity |
| QVQLVESGGRLVQAGGSLRFSCAASGGIFESYAMGGYRQAPGQERELVASISSGGSTYYADSVKGRFTISRDNAKNTVYLQMNSLKPEDTAVYYCNTDNGSHGMDYWGQGTQVTVSS | low polyreactivity |
| QVQLVESGGRLVQAGGSLRLICAASGFTFGAYAMGWYRQAPGKERELVATIPYSGDSTYYADSVKGRFTISRDNAKNTVYLQMNSLKPEDTSVYYCAAYSTEGCGSPDWFESFDYWGQGTLVTVSS | low polyreactivity |
| QVQLVESGGRLVQAGGSLRLICAASGFTFWYYAIGWYRQAPGKESEFVASISWNGGRTYYADSVKGRFTISRDNAKNTVYLQMNSLKPEDTAVYYCATRVIYSFTDFKGDYWGQGTQVTVSS | high polyreactivity |
| QVQLVESGGRLVQAGGSLRLSCAASGFIFFTYAMGWYRQAPGKERELVAVITRGGSTYYADSVKGRFTISRDNAKNTVYLQMNSLKPEDTAVYYCAARRYRYFDGTVPLDYWGQGTQVSVSS | high polyreactivity |
| QVQLVESGGRLVQAGGSLRLSCAASGFIFRKYAMGWYRQAHGKVRELVAGIDWSGCRTYYADSVKGRFTISRDNAKNTVYLQMNSLKPEDTAVYYCNSVFRARPDYDYWGVGTQVTVSS | high polyreactivity |
| QVQLVESGGRLVQAGGSLRLSCAASGFTFARYTMGWYRQAPGKERELVAAISSRGSSTYYADSVKWRFTISRDNAKNTVYLQMNSLKPEDTAVYYCGAPPRYGYDYWGQGTQVTVSS | high polyreactivity |
| QVQLVESGGRLVQAGGSLRLSCAASGFTFNYNAMGWYRQAPGKERELVAAISRSGGSTYYADSVMGRFTISRDNAKNTFYLQMNSLKPEDTAVYYFAAVRDIGKYGYWGQGTQVTVSS | high polyreactivity |
| QVQLVESGGRLVQAGGSLRLSCAASGFTYSPYAMGWYRQAPWKESELVAAITSSGGSTYYADSVKGRFTISRDNANNSVYLQMKSLKPEDTAVYYSAADYGYKYYWRYGYWGQGTQVTVSS | high polyreactivity |
| QVQLVESGGRLVQAGGSLRLSCAASGITFYYYAMGWYRQAPGKERELVAAISVSGGSTYYADSVKGRFTISRDNAKNTVYLQMNSLKPEDTAVYYCAAADLLSYTYPEYDYWGQGTQVTVSS | low polyreactivity |
| QVQLVESGGRLVQAGGSLRLSCAASGLIFAPYAMGWYRQAPGKEWELVAAISSSGTSTYYADSVKGRFTISRDNAKNTVYLQMNSLKPEDTAVYYCAAVYWTFWGTIATRYDYWGQGTQVTVSS | high polyreactivity |
| QVQLVESGGRLVQAGGSLRLSCAASGLIIDYYTMGWYRQAPGKERELVAAINKSGGSTYADSVKGRFTISRDNAKNTVYLQMNCLKPEDSAVYYCAAEVDYSYWPEYSRKYYYWGEGTQVTVSS | low polyreactivity |
| QVQLVESGGRLVQAGGSLRLSCAASGLTLFRYDQGWYRQAPGKERELVAAIDYGGGTYYADSVKGRFTISRDNAKNTVYLQMNSLKPEDTAVYYCAVEPEYKYYEGDYWGQGTQVTVSS | low polyreactivity |
| QVQLVESGGRLVQAGGSLRLSCAASGRIFGAYAMGWYRQAPGKERELVAAINSGGSTFYADSVKGRFTISRDNAKNTVYLQMNRLKPEDTAVYYCAKRSYDYRRYSWGQGTQVTVSS | high polyreactivity |
| QVQLVESGGRLVQAGGSLRLSCAASGRIFNYYDMGWYSQAPGKERELVAAINYSGGSTYYADSVKGRFTISRDNAKNTVSLQMNSLKAEDTAVYYCAADGYYYYCYGTTDQDDYWGLGTQVTVSS | low polyreactivity |
| QVQLVESGGRLVQAGGSLRLSCAASGRIFRYYTMGWYRQAPGKERELVAAITRRGGITNYADSVKGRFTISRDNAKNTVYLQTNSLKPEDTAVYYCAAKYVSQGYDYWGQGTQVTVSS | high polyreactivity |
| QVQLVESGGRLVQAGGSLRLSCAASGRIFTGSNVMGWYRQAPGKEREFVAVINSGGGSTYYADSVKGRFTISRDNAKNTVYLQMNSLKPEDTAVYYCAADVGGWGYYDWVQGTQVTVSS | low polyreactivity |
| QVQLVESGGRLVQAGGSLRLSCAASGRIFVYNAMRWYRQAPGKERELVASITSSGGSTYYADSVKGRFTISRDNAKNTVYLQMNSLKPEDTAVYYCAADVQPDTRSTPEMDYWGQGTQVTVSS | low polyreactivity |
| QVQLVESGGRLVQAGGSLRLSCAASGRIFYPYAMGWYRQAPGKERELVASISSSGDRTYYADSVKGRFTISRDNAKNTVYLQMNSLKPEDTAVYYCAARWRYTYYYWGQGTQVTVSS | high polyreactivity |
| QVQLVESGGRLVQAGGSLRLSCAASGRILRQYTMGWYRQAPGKERELVAGITGSDSSTYYADSVKGRFTISRDNAKNTVYFQMNSLKPEDRAVYYCGTYRWGTLASIYYYWGQGPQVTVSS | low polyreactivity |
| QVQLVESGGRLVQAGGSLRLSCAASGRTFNRNAMVWYRQAPGKERELVAAISRGGGGTYYADSVMGRFTISRDNAKNTVYLQMNSLKPEDTAVYYCNAAPYYVMYLLWSSNTYDYWGQGTQVTVSS | high polyreactivity |
| QVQLVESGGRLVQAGGSLRLSCAASGRTFRWYAMGWYRQAPGKEREVVAAITFSGGSTYYADSVKGRFTISRDIAKNTVYLQMNSLKPEDTAVYYCNAVYYRRKEYDYWGQGTQVTVSS | high polyreactivity |
| QVQLVESGGRLVQAGGSLRLSCAASGRTFSTYDMGWSRQAPGKERELVAAITSTGDTPYYADSVKGRFTISRDTAKNTVYLQLNSLKPEDTAVYYCAAYASWHQWIYAFYGLDYWGQGTQVTVSS | low polyreactivity |
| QVQLVESGGRLVQAGGSLRLSCAASGRTFYGYAMGWYRQAPGKEREFVAAISVGGGSTYYADSVKGRFTISRDKAKNTVYLQMNSLKPEDTAVYYCAAYTRYWSYGYWGQGTQVTVSS | high polyreactivity |
| QVQLVESGGRLVQAGGSLRLSCAASGRTIYSNTMGWYRQAPGKEREFVAAIPSIVGSTYYADSVKGRFTISRDNAKNTVYLQMNSLKPEDTAVYYCAVTDYYSYLLRYDSWGQGTQVTVSS | low polyreactivity |
| QVQLVESGGRLVQAGGSLRLSCAASGSIFIPNAMGWYRQAPGKERELVAAITVSGGITYYADSVKGRFTISRDNAKNSVYLQMNSLKPEDTAVYYCAADFTIYYILEYDYWGQGTQVTVSS | low polyreactivity |
